According to patent US5856125:

Biological target: T1, ERF (Homo sapiens) (UniProt P50548)
T1 sequence: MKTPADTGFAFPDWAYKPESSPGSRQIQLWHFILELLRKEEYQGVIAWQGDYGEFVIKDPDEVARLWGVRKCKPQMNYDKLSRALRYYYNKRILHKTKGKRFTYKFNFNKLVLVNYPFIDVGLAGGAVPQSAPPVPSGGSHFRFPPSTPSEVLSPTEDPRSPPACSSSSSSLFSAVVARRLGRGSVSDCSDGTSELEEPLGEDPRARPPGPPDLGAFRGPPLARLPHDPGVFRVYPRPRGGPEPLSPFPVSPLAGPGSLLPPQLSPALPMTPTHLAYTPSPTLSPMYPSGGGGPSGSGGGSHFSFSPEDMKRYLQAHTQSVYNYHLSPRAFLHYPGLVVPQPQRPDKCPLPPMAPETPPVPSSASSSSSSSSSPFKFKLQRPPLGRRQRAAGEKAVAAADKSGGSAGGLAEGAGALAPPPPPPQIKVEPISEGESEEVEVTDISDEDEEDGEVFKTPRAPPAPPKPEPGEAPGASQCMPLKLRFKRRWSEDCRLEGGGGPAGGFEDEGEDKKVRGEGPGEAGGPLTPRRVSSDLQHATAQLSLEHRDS
Assay: cell_activity
Conditions: HeLa CAT reporter; values over 30 set to 30

**Q.** ETS2 promoter -394 to +125 was tested. Which activity (fold repression) did it give?
**A.** The activity (fold repression) was greater than 30.
